Assay results from EP2970434B1 (The Regents of the University of California, dated 2018).
Positions count from the first letter of the chain named. Blank lines part the entries; values can stand above or below the molecule they belong to.

Legend:
[1] = biological target: Glu-plasminogen (Homo sapiens (Human)) (UniProt P00747); assay: competition of Glu-Plg (2 µM) binding to PMA-stimulated U937 cells by µ-plasmin-KD1L17R-KT complex, read by plasmin generation; Kd from IC50 by Cheng-Prusoff
human plasmin [2] = biological target: T1, human plasmin (human, UniProt P00747 97-810, limits assumed); assay: cell-based or functional assay
T1 sequence (P00747 97-810 limits assumed): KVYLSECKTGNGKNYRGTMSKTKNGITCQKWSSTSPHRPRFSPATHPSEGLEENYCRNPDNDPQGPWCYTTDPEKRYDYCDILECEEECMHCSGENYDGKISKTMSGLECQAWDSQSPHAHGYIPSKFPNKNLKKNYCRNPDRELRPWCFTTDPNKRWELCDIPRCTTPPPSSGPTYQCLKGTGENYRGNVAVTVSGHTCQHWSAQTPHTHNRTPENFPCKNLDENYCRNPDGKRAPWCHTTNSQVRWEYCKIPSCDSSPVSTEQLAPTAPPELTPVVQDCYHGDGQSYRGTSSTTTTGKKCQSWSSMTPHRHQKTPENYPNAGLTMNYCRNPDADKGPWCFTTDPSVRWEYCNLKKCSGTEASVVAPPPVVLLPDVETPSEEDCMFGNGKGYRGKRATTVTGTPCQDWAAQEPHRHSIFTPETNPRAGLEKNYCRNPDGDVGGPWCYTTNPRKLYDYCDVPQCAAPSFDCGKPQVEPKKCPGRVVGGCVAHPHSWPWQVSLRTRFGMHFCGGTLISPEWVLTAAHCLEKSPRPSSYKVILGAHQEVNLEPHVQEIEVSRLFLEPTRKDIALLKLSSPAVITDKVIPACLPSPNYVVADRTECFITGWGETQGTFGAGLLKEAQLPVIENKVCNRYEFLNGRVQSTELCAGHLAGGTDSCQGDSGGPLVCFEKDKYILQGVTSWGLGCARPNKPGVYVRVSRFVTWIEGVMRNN

[3] = biological target: T2, active site-blocked human plasmin (human, UniProt P00747 97-810, limits assumed, active site blocked with a chloromethylketone inhibitor (e.g., D-Val-Phe-Lys chloromethylketone dihydrochloride)); assay: SPR (BiaCore), active site-blocked plasmin on CM5 chip, polypeptide as analyte at 1-12 µM
T2 construct: also called immobilized plasmin
T2 sequence (P00747 97-810 limits assumed): as above

[4] = biological target: T3, tissue plasminogen activator (Alteplase) (UniProt P00750 36-562); assay: SPR (Biacore T100, 25 °C), tPA on CM5 chip, 1:1 binding model
T3 construct: also called tPA
T3 sequence (P00750 36-562 limits assumed): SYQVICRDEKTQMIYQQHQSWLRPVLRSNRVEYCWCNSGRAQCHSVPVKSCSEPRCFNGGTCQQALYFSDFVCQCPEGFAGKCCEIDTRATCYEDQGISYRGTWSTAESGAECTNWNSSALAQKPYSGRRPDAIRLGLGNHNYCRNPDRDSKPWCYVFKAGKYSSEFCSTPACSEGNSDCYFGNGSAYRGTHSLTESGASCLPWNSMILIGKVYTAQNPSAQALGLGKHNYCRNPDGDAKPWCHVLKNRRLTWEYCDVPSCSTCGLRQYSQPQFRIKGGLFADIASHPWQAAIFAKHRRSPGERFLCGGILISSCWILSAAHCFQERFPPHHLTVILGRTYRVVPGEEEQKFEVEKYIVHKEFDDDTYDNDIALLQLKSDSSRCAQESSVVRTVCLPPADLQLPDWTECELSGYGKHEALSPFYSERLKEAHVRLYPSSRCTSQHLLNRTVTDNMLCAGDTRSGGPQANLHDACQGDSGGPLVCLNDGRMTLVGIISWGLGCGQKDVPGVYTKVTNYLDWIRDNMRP

Glu-plasminogen [5] = biological target: T4, Glu-plasminogen (Homo sapiens (Human), UniProt P00747 20-810, Native glycoprotein; the glycans are not carried by the letters.); assay: SPR, upper end tied to Glu-Plg by paragraph 202
T4 construct: also called Glu-Plg
T4 sequence (P00747 20-810 limits assumed): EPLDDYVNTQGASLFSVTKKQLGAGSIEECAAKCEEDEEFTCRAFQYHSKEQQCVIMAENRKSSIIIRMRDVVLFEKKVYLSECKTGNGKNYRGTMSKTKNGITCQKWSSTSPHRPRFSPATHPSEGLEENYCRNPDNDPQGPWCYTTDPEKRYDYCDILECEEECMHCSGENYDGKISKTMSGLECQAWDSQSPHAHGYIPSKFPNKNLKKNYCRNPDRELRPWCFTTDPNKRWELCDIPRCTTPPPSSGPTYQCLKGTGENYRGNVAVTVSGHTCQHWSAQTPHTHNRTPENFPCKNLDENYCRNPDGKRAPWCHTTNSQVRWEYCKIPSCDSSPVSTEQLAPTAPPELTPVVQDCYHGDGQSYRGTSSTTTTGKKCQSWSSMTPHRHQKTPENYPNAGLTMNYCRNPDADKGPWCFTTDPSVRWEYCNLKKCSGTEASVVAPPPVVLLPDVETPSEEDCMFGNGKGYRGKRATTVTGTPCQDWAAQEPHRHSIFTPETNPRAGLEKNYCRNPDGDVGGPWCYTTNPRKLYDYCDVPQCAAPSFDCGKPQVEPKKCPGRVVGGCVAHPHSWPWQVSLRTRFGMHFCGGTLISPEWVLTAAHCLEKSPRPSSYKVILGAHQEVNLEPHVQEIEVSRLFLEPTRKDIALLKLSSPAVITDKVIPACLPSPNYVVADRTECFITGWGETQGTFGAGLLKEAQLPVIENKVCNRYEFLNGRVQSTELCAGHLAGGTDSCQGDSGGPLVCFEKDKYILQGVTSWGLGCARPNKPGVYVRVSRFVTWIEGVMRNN

Glu-plasminogen [6] = biological target: T4, Glu-plasminogen; assay: SPR (Biacore T100, 25 °C), Glu-Plg on CM5 chip, 1:1 binding model
[7] = biological target: T3, tissue plasminogen activator (Alteplase); assay: SPR, lower end tied to tPA by paragraph 202
human plasmin [8] = biological target: T1, human plasmin; assay: plasmin amidolytic activity inhibition, S-2251 substrate, 3 nM plasmin, tight-binding equation
human plasmin [9] = biological target: T1, human plasmin; assay: plasmin amidolytic activity inhibition, S-2251 substrate
[10] = biological target: T2, active site-blocked human plasmin; assay: SPR (BiaCore), active site-blocked plasmin on CM5 chip, polypeptide as analyte at 1-10 µM
[11] = biological target: T5, factor VIIa-tissue factor (soluble human tissue factor 100 nM and factor VIIa 50 nM) (human), P08709; assay: factor VIIa-tissue factor amidolytic activity inhibition, S-2288 substrate; settings: remark: other sources report otherwise
T5 chain 1: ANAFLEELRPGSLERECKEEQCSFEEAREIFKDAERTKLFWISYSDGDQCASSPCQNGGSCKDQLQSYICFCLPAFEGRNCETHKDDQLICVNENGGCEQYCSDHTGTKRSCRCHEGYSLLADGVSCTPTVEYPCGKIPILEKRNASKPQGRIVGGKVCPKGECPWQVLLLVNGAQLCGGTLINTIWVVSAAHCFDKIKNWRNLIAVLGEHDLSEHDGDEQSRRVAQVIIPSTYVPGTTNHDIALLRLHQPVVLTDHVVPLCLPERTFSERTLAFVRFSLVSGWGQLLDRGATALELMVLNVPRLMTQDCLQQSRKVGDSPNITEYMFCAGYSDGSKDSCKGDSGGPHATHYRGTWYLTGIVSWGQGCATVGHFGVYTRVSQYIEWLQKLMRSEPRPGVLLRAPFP
T5 chain 2: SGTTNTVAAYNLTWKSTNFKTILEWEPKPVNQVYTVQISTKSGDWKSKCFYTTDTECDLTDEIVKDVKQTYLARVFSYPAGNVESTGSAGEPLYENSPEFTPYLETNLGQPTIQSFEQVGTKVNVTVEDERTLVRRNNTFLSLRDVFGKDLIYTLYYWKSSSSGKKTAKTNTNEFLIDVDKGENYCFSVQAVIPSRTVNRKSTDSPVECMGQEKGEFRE

Sequence of Glu-plasminogen (Homo sapiens (Human)) (P00747 20-810 limits assumed): as the sequence (P00747 20-810 limits assumed) above

Kd [1]: 300 nM
Molecule: µ-plasmin-KD1L17R-KT complex (from UniProt P00747 561-580; P00747 581-810)

IC50 (nM), inhibition of plasmin activity (S2251 hydrolysis) (human plasmin [2]): 0.8 nM
B1: plasmin-inhibiting polypeptide comprising the amino acid sequence set forth in SEQ ID NO:4 (designed binder)
chain: NAEICLLPLDTGPCRARLLRYYYDRYTQSCRQFLYGGCEGNANNFYTWEACDDACWRIEKVPK

IC50 (nM), inhibition of plasmin activity (S2251 hydrolysis) (human plasmin [2]): 1.8 nM
Kd [3]: 290 nM
B2: plasmin-inhibiting polypeptide comprising the amino acid sequence set forth in SEQ ID NO:6 (designed binder)
chain: B1 chain with T11Y
notes: Purified recombinant polypeptide; also called 63-residue

Kd [4]: 210 nM
koff [4]: 0.00019 s⁻¹
kon [4]: 910 M⁻¹ s⁻¹
Kd (Glu-plasminogen [5]): 200 to 300 nM
Kd (Glu-plasminogen [6]): 280 nM
koff (Glu-plasminogen [6]): 0.00031 s⁻¹
kon (Glu-plasminogen [6]): 1100 M⁻¹ s⁻¹
Kd [7]: 200 to 300 nM
Ki (human plasmin [8]): 1 nM
B3: KD1L17R-KT (designed binder)
chain: GNNAEICLLPLDYGPCRARLLRYYYDRYTQSCRQFLYGGCEGNANNFYTWEACDDACWRIEKVPK
notes: Both have C-terminal lysine; also called IIa cleaved KD1L17R-VT

Ki (human plasmin [9]): 2.36 nM
Kd [10]: 130 nM
IC50 (nM), inhibition of plasmin activity (S2251 hydrolysis) (human plasmin [2]): 3.4 nM
B4: plasmin-inhibiting polypeptide comprising the amino acid sequence set forth in SEQ ID NO:5 (designed binder)
chain: NAEICLLPLDYGPCRARLLRYYYDRYTQSCRQFLYGGCEGNANNFYTWEACDDACWRIEK
notes: Expressed in E. coli; also called 60A

Ki [11]: 5870 nM
Ki (human plasmin [9]): 0.49 nM
Kd [10]: 313 nM
IC50 (nM), inhibition of plasmin activity (S2251 hydrolysis) (human plasmin [2]): 1.8 nM
B5: plasmin-inhibiting polypeptide comprising the amino acid sequence set forth in SEQ ID NO:3 (designed binder)
chain: B4 chain with Y11T
notes: Expressed in E. coli; also called DM; 60B
